Test results reported in PMC3815341.

Key:
[1] = tested on: CC(=O)Oc1ccc([N+](=O)[O-])cc1; experiment: purified protein; conditions: pH 7, 37°C
[2] = tested on: CCCC(=O)Oc1ccc([N+](=O)[O-])cc1; experiment: purified protein; conditions: pH 7, 37°C
[3] = tested on: CCCCCC(=O)Oc1ccc([N+](=O)[O-])cc1; experiment: purified protein; conditions: pH 7, 37°C
[4] = tested on: CCC(=O)Oc1ccc([N+](=O)[O-])cc1; experiment: purified protein; conditions: pH 7, 37°C
[5] = substrate: CCC(=O)Oc1ccc([N+](=O)[O-])cc1; experiment: pNP release, initial rates, Michaelis-Menten fit; assay type: biochemical, Pseudomonas putida
[6] = substrate: CC(=O)Oc1ccc([N+](=O)[O-])cc1; experiment: pNP release, initial rates, Michaelis-Menten fit; assay type: biochemical, Pseudomonas putida
[7] = substrate: CCC(=O)Oc1ccc([N+](=O)[O-])cc1; experiment: pNP release, initial rates, Michaelis-Menten fit; assay type: biochemical, Rhodopseudomonas palustris; conditions: pH 9, 37°C
[8] = substrate: CC(=O)Oc1ccc([N+](=O)[O-])cc1; experiment: pNP release, initial rates, Michaelis-Menten fit; assay type: biochemical, Rhodopseudomonas palustris; conditions: pH 9, 37°C
[9] = substrate: CCCCCC(=O)Oc1ccc([N+](=O)[O-])cc1; experiment: pNP release, initial rates, Michaelis-Menten fit; assay type: biochemical, Rhodopseudomonas palustris; conditions: pH 9, 37°C
[10] = substrate: CCCC(=O)Oc1ccc([N+](=O)[O-])cc1; experiment: pNP release, initial rates, Michaelis-Menten fit; assay type: biochemical, Rhodopseudomonas palustris; conditions: pH 9, 37°C
[11] = substrate: CCCCCC(=O)Oc1ccc([N+](=O)[O-])cc1; experiment: pNP release, initial rates, Michaelis-Menten fit; assay type: biochemical, Pseudomonas aeruginosa; conditions: pH 8, 37°C
[12] = substrate: CCCCCCCCCC(=O)Oc1ccc([N+](=O)[O-])cc1; experiment: pNP release, initial rates, Michaelis-Menten fit; assay type: biochemical, Pseudomonas aeruginosa; conditions: pH 8, 37°C
[13] = substrate: CC(=O)Oc1ccc([N+](=O)[O-])cc1; experiment: pNP release, initial rates, Michaelis-Menten fit; assay type: biochemical, Pseudomonas aeruginosa; conditions: pH 8, 37°C
[14] = substrate: CCCCCC(=O)Oc1ccc([N+](=O)[O-])cc1; experiment: pNP release, initial rates, Michaelis-Menten fit; assay type: biochemical, Pseudomonas putida; conditions: pH 8, 37°C
[15] = substrate: CCCCCCCCCC(=O)Oc1ccc([N+](=O)[O-])cc1; experiment: pNP release, initial rates, Michaelis-Menten fit; assay type: biochemical, Pseudomonas putida; conditions: pH 8, 37°C
[16] = substrate: CC(=O)Oc1ccc([N+](=O)[O-])cc1; experiment: pNP release, initial rates, Michaelis-Menten fit; assay type: biochemical, Streptomyces avermitilis; conditions: pH 8, 37°C

Molecule: RpEST-1 (Rhodopseudomonas palustris CGA009)
- Km [1]: 300 ± 0 µM
- kcat [1]: 65.6 ± 1.5 s⁻¹
- kcat/Km [1]: 219000 M⁻¹ s⁻¹
- Km [2]: 500 ± 0 µM
- kcat [2]: 75.5 ± 1.6 s⁻¹
- kcat/Km [2]: 151000 M⁻¹ s⁻¹
- Km [3]: 1900 ± 100 µM
- kcat [3]: 217 ± 11.8 s⁻¹
- kcat/Km [3]: 114000 M⁻¹ s⁻¹
- Km [4]: 1500 ± 100 µM
- kcat [4]: 307 ± 15.3 s⁻¹
- kcat/Km [4]: 205000 M⁻¹ s⁻¹

B1: PpEST-1 (Pseudomonas putida KT2440) (protein)
chain: MRNRLVLLPGWGLGTAALEPLAASLRAQDARLQVELMPLPELAHSDVQAWIDHLDRKLPNDVWLGGWSLGGMLASALAHKRGDHCCGLLTLASNPSFLARPDWPHGMAEDTFGTFLDGCRNHTQVTLKRFRTLCSDGALQPRTLLRQLGVGVPETDPLYLATGLEVLAKLDTREALQAYDGPQLHLFAGSDALVPAEAAKALSELLPDVEVGMVEDSSHAFLLEYPQELAAGIKSFLHESGDD
- Km ([5]; pH 8, 37°C): 3000 ± 400 µM
- kcat ([5]; pH 8, 37°C): 3.1 ± 0.3 s⁻¹
- kcat/Km ([5]; pH 8, 37°C): 1000 M⁻¹ s⁻¹
- Km ([6]; pH 8, 37°C): 1400 ± 100 µM
- kcat ([6]; pH 8, 37°C): 3.9 ± 0.2 s⁻¹
- kcat/Km ([6]; pH 8, 37°C): 2800 M⁻¹ s⁻¹

B2: PpEST-2 (Pseudomonas putida KT2440) (protein)
chain: MSTFVTRDGTSIYFKDWGSGKPVLFSHGWPLDADMWDSQMEFLASRGYRAIAFDRRGFGRSSQPWNGYDYDTFADDIAQLIEHLDLRDVTLVGFSMGGGDVSRYIARHGSERVAGLVLLGAVTPVFGKRDDNPDGVDLSVFEGIRAGLRADRAQFIADFATPFYGLNHGQQVSQGVQTQTLNIALMASIKGTLDCVTAFSETDFRPDMAKVDVPTLVIHGDDDQIVPFETTGKQAAELIRGAELKVYAGAPHGFAVTHAQQLNEDLLAFLQR
- Km ([5]; pH 9, 37°C): 1000 ± 100 µM
- kcat ([5]; pH 9, 37°C): 3 ± 0.1 s⁻¹
- kcat/Km ([5]; pH 9, 37°C): 3000 M⁻¹ s⁻¹
- Km ([6]; pH 9, 37°C): 1100 ± 100 µM
- kcat ([6]; pH 9, 37°C): 12.5 ± 0.5 s⁻¹
- kcat/Km ([6]; pH 9, 37°C): 11400 M⁻¹ s⁻¹

B3: RpEST-2 (Rhodopseudomonas palustris CGA009) (protein)
chain: MSEAVMAGAEAFAFDGGKTGVLLVHGFTGSPQSMRYLGERLGERGYSILGPRLPGHGVSPAAMAKTTANDWVNCAEDALLELSAKCDKTFVAGLSMGGTLSLYLAASHPDKVAGVIPINAAVQIDSPDLAGLAYARGLPEFVPGIGSDMVDTSTKELAYDQVPVTCVKQVMGLAATARALLPRIKCPTLVINSRVDHVLSPANATVIANHVGSSRIETLWLDNSYHVATIDNDKDLIAAEIDSFVTRNL
- Km [7]: 4900 ± 1800 µM
- kcat [7]: 24.4 ± 7.8 s⁻¹
- kcat/Km [7]: 4900 M⁻¹ s⁻¹
- Km [8]: 1400 ± 200 µM
- kcat [8]: 52.7 ± 4.3 s⁻¹
- kcat/Km [8]: 37600 M⁻¹ s⁻¹

B4: RpEST-3 (Rhodopseudomonas palustris CGA009) (protein)
chain: MPSFDHAGVNIAYLDEGEGEPILLIHGFASNKNVNWVYPSWLSELKRTGRRVIAIDNRGHGESSKLYDPNDYTLEAMASDAVALMDHLGIARADVMGYSMGARIGANLARRQEQRVRSVVLGGLGMGLLSNEGRPGENVARALEADALDDVTDPVGRTFRAFADQTRSDRKALAACMRGSRGLMSREDAAQIAVPVLIAVGTDDDVAGSAHELGDIIPGSQVLDIPRRDHMRAVGDRVYKEGVVDFLARRP
- Km [9]: 2100 ± 300 µM
- kcat [9]: 5 ± 0.4 s⁻¹
- kcat/Km [9]: 2400 M⁻¹ s⁻¹
- Km [10]: 3600 ± 400 µM
- kcat [10]: 7.2 ± 0.7 s⁻¹
- kcat/Km [10]: 2000 M⁻¹ s⁻¹

B5: PaEST-1 (Pseudomonas aeruginosa) (protein)
chain: MKRFLLGLVLLLAVAAGVLYFVPATLLASVRTVERGLAGLSEHSVQVDNLEIAYLEGGSEKNPTLLLIHGFGADKDNWLRFARPLTERYHVVALDLPGFGDSSKPQQASYDVGTQAERVANFAAAIGVRRLHLAGNSMGGHIAALYAARHPEQVLSLALIDNAGVMPARKSELFEDLERGENPLVVRQPEDFQKLLDFVFVQQPPLPAPLKRYLGERAVAASAFNAQIFEQLRQRYIPLEPELPKIEAPTLLLWGDRDRVLDVSSIEVMRPLLKRPSVVIMENCGHVPMVERPEETAQHYQAFLDGVRNAQVAGR
- Km [11]: 1400 ± 400 µM
- kcat [11]: 12.9 ± 2.4 s⁻¹
- kcat/Km [11]: 9200 M⁻¹ s⁻¹
- Km [12]: 1200 ± 200 µM
- kcat [12]: 9.2 ± 1 s⁻¹
- kcat/Km [12]: 7600 M⁻¹ s⁻¹
- Km [13]: 1400 ± 200 µM
- kcat [13]: 1.9 ± 0.2 s⁻¹
- kcat/Km [13]: 1300 M⁻¹ s⁻¹

B6: PpEST-3 (Pseudomonas putida KT2440) (protein)
chain: MIQPVAERTPAGTSYLDVGQGQPVVLIHGVGLNKEMWGGQFVGLANDYRVIAYDMLGHGQSRVPAADTPLEGYADQLAELLDHLQIAQATVIGFSMGGLVARAFALNYPQRLAALVVLNSVFNRTPEQSAGVIARAAQAAELGPDANVDAALDRWFSREYKAANPAQVAAIRQVLASNDPQGYHTTYSLFATQDMYRADDLGSIQVPTLIATGELDSGSTPAMTRQLAACIPGARSVVLAEQRHMMPVEAPREVNKMLLDFLTQARTLTESAKGIVA
- Km [14]: 200 ± 0 µM
- kcat [14]: 12.1 ± 0.3 s⁻¹
- kcat/Km [14]: 60400 M⁻¹ s⁻¹
- Km [15]: 800 ± 100 µM
- kcat [15]: 8.7 ± 0.4 s⁻¹
- kcat/Km [15]: 10900 M⁻¹ s⁻¹
- Km ([5]; pH 8, 37°C): 100 ± 0 µM
- kcat ([5]; pH 8, 37°C): 6.8 ± 0.1 s⁻¹
- kcat/Km ([5]; pH 8, 37°C): 67900 M⁻¹ s⁻¹
- Km ([6]; pH 8, 37°C): 1000 ± 100 µM
- kcat ([6]; pH 8, 37°C): 6.2 ± 0.3 s⁻¹
- kcat/Km ([6]; pH 8, 37°C): 6200 M⁻¹ s⁻¹

B7: SavEST-1 (Streptomyces avermitilis MA-4680 = NBRC 14893) (protein)
chain: MTSQHVVGRFFDVQGGQVYAHVREGDGPALIFLHYWGGSRRTWIPVLQRLDPGQGFVAYDQRGWGGSTSVPGPYDLEQLADDAQRVVDALGYSRYVLVGHSMGGKVAQILAARKPAGLRGVVLVAPAPPAPIGVTEQVQETVSHAYDNEEAVLQSIDLMLTRGGLTPELRRQVVEDSLRGGDEARLEWPRRGLVQDVSAGVSAIEVPVLVLAGSHDKVDPPTVLADHLLPLIPTATLTVLKDTGHLSPLEVPDQVAAHIGAFVAQL
- Km [16]: 300 ± 0 µM
- kcat [16]: 2.9 ± 0.1 s⁻¹
- kcat/Km [16]: 9500 M⁻¹ s⁻¹
